Assay results taken from PMC7969034.

What was measured:
[1] = molecular target: T1, p204 HINab (Mus musculus, UniProt P0DOV2 216-619); assay: fluorescence polarization
T1 sequence: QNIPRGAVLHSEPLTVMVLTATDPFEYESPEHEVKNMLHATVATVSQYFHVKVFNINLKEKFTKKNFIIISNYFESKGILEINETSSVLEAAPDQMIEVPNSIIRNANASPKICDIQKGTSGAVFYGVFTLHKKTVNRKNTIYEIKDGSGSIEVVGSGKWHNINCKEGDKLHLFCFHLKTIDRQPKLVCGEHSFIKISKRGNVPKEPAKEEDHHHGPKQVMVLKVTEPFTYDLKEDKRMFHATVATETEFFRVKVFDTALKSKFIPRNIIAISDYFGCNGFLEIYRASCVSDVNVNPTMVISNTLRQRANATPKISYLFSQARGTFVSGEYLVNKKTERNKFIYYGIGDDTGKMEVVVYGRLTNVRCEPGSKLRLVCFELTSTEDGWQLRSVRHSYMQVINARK

[2] = molecular target: T1, p204 HINab; assay: X-ray crystallography
[3] = molecular target: T2, p204 HINa (Mus musculus, UniProt P0DOV2 216-417); assay: fluorescence polarization
T2 sequence: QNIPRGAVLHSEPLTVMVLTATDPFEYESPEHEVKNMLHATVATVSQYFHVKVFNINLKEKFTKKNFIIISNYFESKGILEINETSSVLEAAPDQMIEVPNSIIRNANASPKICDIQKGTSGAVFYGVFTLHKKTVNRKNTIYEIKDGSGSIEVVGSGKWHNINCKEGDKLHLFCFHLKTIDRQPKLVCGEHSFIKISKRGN

[4] = molecular target: T3, p204 HINb (Mus musculus, UniProt P0DOV2 427-619); assay: fluorescence polarization
T3 sequence: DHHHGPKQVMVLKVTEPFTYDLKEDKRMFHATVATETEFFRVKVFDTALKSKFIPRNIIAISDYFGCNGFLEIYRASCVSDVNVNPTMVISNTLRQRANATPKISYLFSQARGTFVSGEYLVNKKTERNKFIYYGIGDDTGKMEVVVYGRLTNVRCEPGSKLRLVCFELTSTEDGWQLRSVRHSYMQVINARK

B1: 20 mer dsDNA (dsDNA)
DNA 1: TAAGACACGATGCGATAAAA
DNA 2: TTTTATCGCATCGTGTCTTA
[1]
  Kd: 156 ± 37.5 µM

B2: 16 mer dsDNA (crystal) (dsDNA)
DNA 1: CCATCAGAAAGAGAGC
DNA 2: GCTCTCTTTCTGATGG
[2]
  binding result: binds

B3: 30 mer dsDNA (dsDNA)
DNA 1: CCATCAGAAAGAGGTTTAATATTTTTGTGA
DNA 2: TCACAAAAATATTAAACCTCTTTCTGATGG
[3]
  Kd: 193 ± 77 µM
[4]
  Kd: 157 ± 37.2 µM
[1]
  Kd: 13.5 ± 2.39 µM
